test: soluble on expression in E. coli; label from the status in PepcDB or PDB records

Soluble on expression in E. coli, not soluble:
MGSDKIHHHHHHKSVHPYWSQVEQGVKAAGKALGVDTKFFVPQKEDINAQLQMLESFIAEGVNGIAIAPSDPTAVIPTIKKALEMGIPVVTLDTDSPDSGRYVYIGTDNYQAGYTAGLIMKELLGGKGKVVIGTGSLTAMNSLQRIQGFKDAIKDSEIEIVDILNDEEDGARAVSLAEAALNAHPDLDAFFGVYAYNGPAQALVVKNAGKVGKVKIVCFDTTPDILQYVKEGVIQATMGQRPYMMGYLSVTVLYLMNKIGVQNTLMMLPKVKVDGKVDYVIDTGVDVVTPENLDEYLKKMEELGIPIKF
MGSDKIHHHHHHKVEDLVQIATALEVDTIVLNDELSPSQLTNLEKETNLHFIDRTGLILEIFANRAHSREAKLQVELAKLQYQLPRLRTSSTQRLDQQTAGNTGGGFTNRGSGETKLELNRRTIRNKINHINKELKEMTTSSDIQRKQRDKKDIPSVALVGYTNTGKSTTMNGLVRMYGRNEDKQVFEKDMLFATLDTSVRKLTFPDQKELVLSDTVGFVSHLPHQLVKAFRSTLAEAAKADLLVQIVDISDPHYREMMQTTEDTLNEIGVTDIPMIYAFNKADLAGVSYPTLDGNELTYSAKQLQSLEMVTALIKKQVFKNYVEAKFLIPFNEGQVVDFLNGNADVKKTDYTEEGTEITAELKEKDYQRLARYVIQ
MGSDKIHHHHHHLEISLNEIIDYYAKADVSFVGAFGERVSPQLKVLDRHTNPAGGGLVIPFSGSACFTFDGKPYVIEPGMVVHAGPGMRLSKEVIGDREWEYAVIHYHIPQHERDEYPLFHKDFSLAHGRSAKVPHLVRQILDIQSIPGAAAKFQTKVLFLSLLQEIFTAACGQPGQENSKLIEEAMGYIRLNYADELTVQKVADEFSVERRQFSYLFKRHTGMSPIHYLIECRISKAKELLGSPGCSVKQVAEWVGYTDSLYFSKAFKKYTGVSPSEYREGFAL
MGSDKIHHHHHHLINVAETTGLQTKAFVGEADFQIVDYAGDKCIQFKNDSVFNAMLWEMNDMSEEERNNIFSGAGFVSQWQLMQEADQEQELIVDNYEKDLSQPWPAHQIKEFKQKYDDVFMFEPYDSTDFIAHYKLKGSTYSSFVNRRGVFLIGDSVAHAPVYKALEEYFGSGISLYGNNEATNEKNDINLAESKYQIPGGDYVKVRAIPRFIELQTIENKNYLSLGFDYLSQKKKVLWKKHRTMIILRLTASGSGSGFEVYNVSIKNYQNKNGVTILLHTDVYNKLLAKDQGGMLGHVGENPRNSVTIVTPPRFEFSGRMEIWSDEMPESNKGTAKISLKEDW
MGSDKIHHHHHHLLPKYNILTEDQVQKIHENTMKILEEIGIEFEYEPALEVFRREGQKVEGKRVYLTREFVESKLKSAPAEFTLHARNPENNVVIGGDNIVFMPGYGAPFIYELDGSRRKTTLQDYENFAKLAGASKNMHLSGGTMAEPQDIPDGVRHLQMLYSSIKNSDKCFMGSAEGKERAEDSVEIAAILFGGKDVIKEKPVLVSLINSLTPLKYDERMLGALMAYAEAGQAVIIASLVMAGSTGPASLAGTLSLQNAEVLAGISLAQSINPGTPVIYGSTSALSDMRSGSLSIGSPECALFISASAQLARFYGVPSRSGGGLNDSKTVDAQAGYESMMTLMAANLTGVNFVLHTAGILQYFMAMSYEKFIMDDEIAGMLLHYMKGYTFDEDGMAFDVIEKVGPGGHFLTQKHTRKNHKREFYTPTLSDRSAYDTWAKEKLETKQRAHARWQQILANYVPPALDPEIDAKLQAFIAQRGKEVGEE
MGSDKIHHHHHHLQVSEMEMLITLSEELNMRRAAERLFVSQPALSQRLVAIERRWATKLFIRSSRGLSITPQGEKVIGLAKEMNRKELELKSELTAEEGAVYGTLRIAVASIMGQYWLPRVLKRFVERYPHVRVQLVTGWSSEMMRHMLEEHFHIGIIRGNPDWKGVKERLFSDPLYLVDSELTSLEQLRKTERPFIQFKSDSTYYQEILEWWQDRFSSPPARTLVVDQIETCKQMALHGIGFAILPESTIHEASEVMQIPLKTSSGKILKRDTWILSTESMLELKQVQAFWDIVKEEGGSQSDGIRN
MGSDKIHHHHHHLRTNTVKVALVGCGRIAGHHARSIVATDGVQLAAVCDLAEDKALAYSNEFGVPSYTDYRRMLAEHPEISVVAVITPSGMHSEHGLEMMERFGKHIILEKPTMMRPEQLVHAWGVADRLNLSIFPVFQNRHNKAVTRVRQALAAGELGEIRIMSVRVRWCRPQRYYDLAPWRGTFSHDGGALTNQGIHHVDLLRHLGGEVDQVSATMRTLGADIEVEDTVVATMRYRSQAVGVLEVTTAARPDDFEASISIVGEKGLAQIGGIAVNELQVFTPDPAACAANSEDFKSFEGNGAVYGFGHSQMYRDIAAHFHQGKAYPVSREDCLGTLKLLHAFYRSDEAAGGWVDVDSPEQSTRLGRPDDAISNLYRTPLHG
MGSDKIHHHHHHLSREARYLEEARGFYQSGKFSSAGIYARKVIRREPSNGEAQALLGHLAFRSGEHQEAMSCYLKAQAAGFQDQELRLNLVTLHERREAFFDAVNLLRELVEETPQDLSLQLRLGINASRTGDMTTAESALLAALAGDEQAAQASLNLGHVYKAKGDTDKAAAFYHDYIRLAPSQQATAYWSLADLKNYRFTEQDEAALKANIAAEEFSQASQSLFHFALNRVYEQRKQGEQAFDAVRMANQLMRPLRPFKREAFTRLVDSLKSAEVKPRGEETSGPWTPIFIVGMPRSGTTLCEQILASHSQIAATDELPFMERLALSLEMKGGYGAMLPRLSEEQIAQMRQQYIEQVNQYLKAQGEASPSLVPSLVIDKNPNNFIHIGLIKTLFPEAKIINVIRDARDNAMGVYKQHFSHGHDYSYHLDDICHYWQLYLELMAHWQQAYGDSLYHLCFEQLVKAPDQQIPAMVDYVGLALEPACLKFYESKRSVLTPSASQVRRPMNVKAIGQSEAYAAFIPNAYRTLTVIADRAHKSFLS
MGSDKIHHHHHHLSSPQYRINMQKYVFRIHPLNTYQLSFFPNYEVNMYKKLNPMIGDRVYRSKGLVMHVGVMVDRDLVAHNSPDNNVEVISMEHFSQGKKVELKRSIGVDPTALKAQLQRISEENRRYCPISFNCEHFANELLGTKDGSEQLLAALLVGSFGLTCKNKWLGLATAGATGLLLCNGLRKYSTT
MGSDKIHHHHHHLTKKITEFQNDEEMELFVLIKSAEKRVTKAGKDFISMKFQDRSGDIHGNCWDAKEEDFKNFQPGRVVLLRGKRETYKNAPQVKIMAMRLATDEEPNDPTAYTEKGPVSAEKLREEFTQLMFEINNPDWNRVVRYLLKKYDREFFSFPAAKTNHHAFEGGLAFHTLSIVNLAKSVAAQYEQVDQSLLIAGAILHDLGKTIELSGPIATQYTVEGNLLGHIVIVDEEIVEAAKDLKIDPSSESMVVLRHMIVAHHGLKEYGSPVEPHMLEAVILHALDELDAEIQMVSGALKNTQPGAFSERIFGMDGRNFYKPESK
MGSDKIHHHHHHLYTYLQYIQSSVQTDVGFCVDGAKNLENMYESTKAVGSGPVKRQAGYGASSPSRASGSHPAPSPYDAASTSSSSSSDSCCSCGIGLAGPAGFPGRPGRDGIDGPAGKPGRDGQDLDGESSSDGSQIELDCPAGPPGPPGNPGPQGNSGRPGMDGMPGRNGRCGRPGEQGERGPNGEDGRPGRRGDDGMPGTVNEIPGQAGPPGLRGAPGATGSQGPRGNDGRPGNKGPAGPPGDQGFDGAPGGPGADGEPGAQGPLGAKGECSHCPPPRTAPGY
MGSDKIHHHHHHMAAGRDTALLMMNLMNAPVPLSPALELALPVDTAVVGVGYFGSLHALCYSRLPGSRLQALIDPDPITQFLAEHLGVPWFPGVAELPSTIRAVSVATPVAMHFGLTRSLLQQGLDVLLEKPIAETAAQATELRMVAEANQCILQIGHIERFNPAYTAGGTLLPFARTVRSVRTTRHPPRSSALDVVIDLMIHDLDLILHSLDSSVVELRASGRSCGLTAIDEAEVELTFSNGCRVYLDAHWGRDTEQDARCMVAELENDETWVIDFRRRMTYRKEPGSSTGPLPADGHTLPFPMQRIQEDTLSLQLAAFLDACRNRSLPRVTPAEGNAALELAHCIRQQILRPCP
MGSDKIHHHHHHMAAPDTPPDSPPPISAVEMPSGKDAGTENFPVGSVLLPARLRPHVARFYAFARAIDDIADSPDLDAAAKIDRLQGFEEAITGRDTTDPAYAKGHALRVSLEATGVPAIHGVELIAAFKQDAVKGRYATWAEMMDYCRLSAAPVGRYLIDLHGGSRAGYASSDALCVALQVINHLQDCQDDFRVLDRVYLPADWLAAEGASVSDLDRAACTPGLRRVLDRCLEGTRRLLDAARPLPGDIIDRRLGLEAAVIVSIAQTLTGRLARQDPLAQRVKLGKAATAFCAARACAAYLMVPGAYR
MGSDKIHHHHHHMADAETIRSYDQLAREQAAFQRHLQPTAIYRLVETFFHPGRPTIDIGSGSGRDVAWLNQHGYQAIGLEPSAGMIAEARAAYAGIEIRQGALPDLAGIADASFDNVLCVAVLMHLPAAELIGAVINLARILRPGGRLIVSYRTPPPEGERAHDGRLYTVIPPARLMLLLESSGLQILFSEDLPDPHRPSIRWFNMVAEKSDRDVSRGLERVGSVLAHDRKTATYKLALLRALCIIARNAFNLVEWSSDVVYVLLRAIATQWLIFYWPLLTSSEFIAQIRGEHPLSPKPIAFRPAITSLAKQLGGAAGLYNVLRILEEDPHRYDDILKLIANTIRKGPVTYSGSIHSPIFSYRPGKSDTFGWVAVPIDIWLDICRFNHWIEDSIVLRWAYLTDELNRTADPGRYLSLLVAKPLHERDTQEVRQALNRSPELFCVWTGQRLGHGYEVDHVIPYSVWGNNDLWNLLPAHPRINQTKRDALPARSILLARREAIIDYWQRYAQIDVFQPRFAVQIHRALGCNLRHADWPKLAFAGLEEVVERTAIVRGLPRWSP
MGSDKIHHHHHHMADNFLSQEEVDALLRGVTNEQEDDTPALDPAGVREYNLATQERIVRGRMPTLEIINERFARLLRIGLFNFLRRTTEVSVGPVKISKYSEFIRNLVVPTNLNLVQMKPLRGTALMVFDPTLVFLIVDNLFGGDGRFHTRVEGRDFTQTEQRIIQRVLAIVFETYAKSWEPVYKLEFEYIRSEMNTQFANIATPNEVVVSTTFNIELGSASGEIHFCFPYSMIEPIRDLLTSPLQGEALGVDKRWVRLMTQQIQSAEVMLIADLAKAEMTLGDILNMKVGDVIPLSISEEIEAKVDNVPVMQCKYGVFNGQYALRVEKLLRSNSSEYVKGEVPDGD
MGSDKIHHHHHHMADQTESVSGVNVDQAELQKFAELAHKWWDKNSEFKPLHEINPLRLNYIDEHAGLAGKRVLDVGCGGGILSESMSERGAEVTGIDLGEKALKVAKLHQYESSAKVDYRLISVEELAQESPESFDIVTCMEMLEHVPDPAAIVRACARLTKPGGKVFFSTINRNPKAYLFAVLGAEYVLNLLPRGTHEYEKFIKPSELAGWARAAGLDVIASKGMGYNPLTKRYKLNNDVSVNYILQTVK
MGSDKIHHHHHHMAEIEQALASPQLIAEKVLKLPSKVLELDRKLADPQFDTKDLLALIEQDPLLSVEVLKLCNSPAFKRGEREVTSLQQALVQLGREQLRRFVTSSLVREMLDIKPIYFRRFGAEIWRHSMQVAFLASELSEEDRDTAFLLGLLHDVGKLAIFKMLLDAFVQAEPGEQPNSWLFRQVMTAKSLTLSALLAKHWQLPSTFETELDKLAHVHTRPNEGIAAVVWRANVISEISMLQQASKLPADMLSNLLALVGLEQAQFDELHEKLQQF
